Patent publication US20260049105A1, “SELECTIVE MC4R LIGAND FOR TREATING OBESITY AND COGNITIVE LOSS” (ARIZONA BOARD OF REGENTS ON BEHALF OF THE UNIVERSITY OF …, priority 2022, published 2026)

Target: human melanocortin 4 receptor (human), P32245
Assay: competition with 125I-NDP-α-MSH on whole HEK293 cells expressing hMC4R
Settings: remark: other sources report otherwise

Chain of human melanocortin 4 receptor (human), P32245 (P32245 whole entry): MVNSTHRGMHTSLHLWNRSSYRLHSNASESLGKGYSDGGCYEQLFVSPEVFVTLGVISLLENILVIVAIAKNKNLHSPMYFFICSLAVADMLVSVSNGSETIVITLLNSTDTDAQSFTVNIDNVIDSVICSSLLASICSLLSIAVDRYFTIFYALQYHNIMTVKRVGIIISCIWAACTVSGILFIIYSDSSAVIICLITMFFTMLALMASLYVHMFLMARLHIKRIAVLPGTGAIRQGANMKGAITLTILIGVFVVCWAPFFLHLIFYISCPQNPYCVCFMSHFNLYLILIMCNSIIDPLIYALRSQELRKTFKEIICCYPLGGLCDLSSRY

BE% (percent [125I]NDP-α-MSH displacement at 10 µM): 23%
B1: Ac-Arg-cyclo[Asp-Pip-D-Phe(4-F)-βArg-Trp-Lys]-NH2 (peptide)
peptide: RDXFRWK
modifications: not fully specified; here or on the partner: N-terminal acetyl (Ac); C-terminal amide (NH2); cyclized through the side chains of Asp2 and Lys7; Pip at 3; D-Phe(4-F) at 4; βArg at 5
